# Experimental data: article PMC3154423
# Tests used:
# Experiment in all cases: ITC
# [1] = molecular target: Jun bZIP R263A;Fos bZIP R146A (human;human, UniProt P05412;P01100 252-315;137-200, R263A|R146A)
# [2] = molecular target: Jun bZIP K258A;Fos bZIP K153A (human;human, UniProt P05412;P01100 252-315;137-200, K258A|K153A)
# [3] = molecular target: Jun bZIP R259A;Fos bZIP R157A (human;human, UniProt P05412;P01100 252-315;137-200, R259A|R157A)
# [4] = molecular target: Jun bZIP K258A;Fos bZIP K148A (human;human, UniProt P05412;P01100 252-315;137-200, K258A|K148A)
# [5] = molecular target: Jun bZIP R270A;Fos bZIP K153A (human;human, UniProt P05412;P01100 252-315;137-200, R270A|K153A)
# [6] = molecular target: Jun bZIP R259A;Fos bZIP R155A (human;human, UniProt P05412;P01100 252-315;137-200, R259A|R155A)
# Jun bZIP R259A;Fos bZIP R155A, sequence (P05412 252-315 R259A, chain 1 of 2): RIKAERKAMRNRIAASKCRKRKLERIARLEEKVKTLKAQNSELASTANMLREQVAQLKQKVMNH
# Jun bZIP R259A;Fos bZIP R155A, sequence (P01100 137-200 R155A, chain 2 of 2): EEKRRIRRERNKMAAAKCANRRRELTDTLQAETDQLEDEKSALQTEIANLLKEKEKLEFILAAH
# Jun bZIP K258A;Fos bZIP K148A, sequence (P05412 252-315 K258A, chain 1 of 2): as the sequence (P05412 252-315 R259A, chain 1 of 2) above, with K7A, A8R counted along it
# Jun bZIP K258A;Fos bZIP K148A, sequence (P01100 137-200 K148A, chain 2 of 2): as the sequence (P01100 137-200 R155A, chain 2 of 2) above, with K12A, A19R counted along it
# Jun bZIP K258A;Fos bZIP K153A, sequence (P05412 252-315 K258A, chain 1 of 2): as the sequence (P05412 252-315 R259A, chain 1 of 2) above, with K7A, A8R counted along it
# Jun bZIP K258A;Fos bZIP K153A, sequence (P01100 137-200 K153A, chain 2 of 2): as the sequence (P01100 137-200 R155A, chain 2 of 2) above, with K17A, A19R counted along it
# Jun bZIP R263A;Fos bZIP R146A, sequence (P05412 252-315 R263A, chain 1 of 2): as the sequence (P05412 252-315 R259A, chain 1 of 2) above, with A8R, R12A counted along it
# Jun bZIP R263A;Fos bZIP R146A, sequence (P01100 137-200 R146A, chain 2 of 2): as the sequence (P01100 137-200 R155A, chain 2 of 2) above, with R10A, A19R counted along it
# Jun bZIP R259A;Fos bZIP R157A, sequence (P05412 252-315 R259A, chain 1 of 2): as the sequence (P05412 252-315 R259A, chain 1 of 2) above
# Jun bZIP R259A;Fos bZIP R157A, sequence (P01100 137-200 R157A, chain 2 of 2): as the sequence (P01100 137-200 R155A, chain 2 of 2) above, with A19R, R21A counted along it
# Jun bZIP R270A;Fos bZIP K153A, sequence (P05412 252-315 R270A, chain 1 of 2): as the sequence (P05412 252-315 R259A, chain 1 of 2) above, with A8R, R19A counted along it
# Jun bZIP R270A;Fos bZIP K153A, sequence (P01100 137-200 K153A, chain 2 of 2): as the sequence (P01100 137-200 R155A, chain 2 of 2) above, with K17A, A19R counted along it
binder,measurement,setting,value
TRE duplex 15-mer (dsDNA) DNA 1: CGCGTGACTCACCCC DNA 2: GGGGTGAGTCACGCG,Kd,[1],1040 ± 40 nM
same,Kd,[2],540 ± 30 nM
same,Kd,[3],3050 ± 120 nM
same,Kd,[4],660 ± 20 nM
same,Kd,[5],1610 ± 150 nM
same,Kd,[6],5750 ± 90 nM
